Reference: US20190218553, “VON WILLEBRAND FACTOR (VWF)-TARGETING AGENTS AND METHODS OF USING THE SAME” (DUKE UNIVERSITY, published 2019)

Legend:
[1] = biological target: T1, von Willebrand factor (VWF) (Homo sapiens, UniProt P04275 P04275:764-2813); experiment: filter; Bmax 52%; 2 mM CaCl2, 37 C; conditions: tags: factor VIII free, Haematologic Technologies Inc; label: 5'-32P
Procedure: (§1) Affinity constants (Kd values) were determined using double-filter nitrocellulose filter binding assays (Rusconi et al, Thromb. Haemost. $4:841-848 (2000)). All binding studies were performed in binding buffer F (20 mM HEPES, pH 7.4, 150 mM NaCl, 2 mM CaCl₂, and 0.01% BSA) at 37° C. Human purified VWF (factor VIII free) was purchased from Haematologic Technologies Inc. (Essex Junction, Vt.) and used in the double-filter nitrocellulose filter binding assay to determine the Kd of the aptamers. Briefly, RNA were end-labeled at the 5′ end with T4 polynucleotide kinase (New England Biolabs, Beverly, Mass.) and [γ³²P] ATP (Amersham Pharmacia Biotech, Piscataway, N.J.) (Fitzwater and Polisky, Methods Enzymol. 267:275-301 (1996)). End-labeled RNA was diluted in binding buffer F, heat denatured at 65° C. for 5 minutes, and subsequently equilibrated at 37° C. Direct binding was performed by incubating trace ³²P-RNA with varying concentrations of VWF protein in binding buffer F at 37° C. for 5 min. The fraction of the nucleic acid-protein complex which bound to the nitrocellulose membrane was quantified with a phosphorimager (Molecular Dynamics, Sunnyvale, Calif.). Non-specific binding of the radiolabeled nucleic acid was subtracted out of the binding such that only specific binding remained (Wong and Lohman, Proc. Natl. Acad. Sci. USA 90:5428-5432 (1993)).

[2] = biological target: T1, von Willebrand factor (VWF); experiment: filter; Bmax 73%; 2 mM CaCl2, 37 C; conditions: Haematologic Technologies Inc, label: 5'-32P
Procedure: as §1

[3] = biological target: T1, von Willebrand factor (VWF); experiment: filter; Bmax 49%; 2 mM CaCl2, 37 C; conditions: Haematologic Technologies Inc, label: 5'-32P
Procedure: as §1

[4] = biological target: T1, von Willebrand factor (VWF); experiment: filter; Bmax 84%; 2 mM CaCl2, 37 C; conditions: Haematologic Technologies Inc, label: 5'-32P
Procedure: as §1

[5] = biological target: T1, von Willebrand factor (VWF); experiment: filter; Bmax 79%; 2 mM CaCl2, 37 C; conditions: tags: factor VIII free, Haematologic Technologies Inc; label: 5'-32P
Procedure: as §1

[6] = biological target: T1, von Willebrand factor (VWF); experiment: filter; Bmax 57%; 2 mM CaCl2, 37 C; conditions: tags: factor VIII free, Haematologic Technologies Inc; label: 5'-32P
Procedure: as §1

[7] = biological target: T1, von Willebrand factor (VWF); experiment: filter; Bmax 56%; 2 mM CaCl2, 37 C; conditions: tags: factor VIII free, Haematologic Technologies Inc; label: 5'-32P
Procedure: as §1

[8] = biological target: T1, von Willebrand factor (VWF); experiment: filter; Bmax 59%; 2 mM CaCl2, 37 C; conditions: tags: factor VIII free, Haematologic Technologies Inc; label: 5'-32P
Procedure: as §1

[9] = biological target: T1, von Willebrand factor (VWF); experiment: filter; Bmax 62%; 2 mM CaCl2, 37 C; conditions: tags: factor VIII free, Haematologic Technologies Inc; label: 5'-32P
Procedure: as §1

[10] = biological target: T1, von Willebrand factor (VWF); experiment: filter; Bmax 10%; 2 mM CaCl2, 37 C; conditions: tags: factor VIII free, Haematologic Technologies Inc; label: 5'-32P
Procedure: as §1

[11] = biological target: T1, von Willebrand factor (VWF); experiment: filter; Bmax 13%; 2 mM CaCl2, 37 C; conditions: tags: factor VIII free, Haematologic Technologies Inc; label: 5'-32P
Procedure: as §1

[12] = biological target: T1, von Willebrand factor (VWF); experiment: filter; Bmax 71%; 2 mM CaCl2, 37 C; conditions: Haematologic Technologies Inc, label: 5'-32P
Procedure: as §1

[13] = tags: factor VIII free human purified VWF

B1: T48 (ssRNA)
RNA: ACGAACUGCCCUCGACUUAUGUCGACGCACAGACGU
modifications: 2'-F C and U; 2'-OH A and G; 3' idT
For B1, the Kd [1] was 12 nM.

B2: T89 vrt6 (ssRNA)
RNA: ACGAACUGCCCUCGUAUUAUUUCGACGCACAGACGU
modifications: 2'-F C9,C10,C11,C26,G27,C28,U36; rest 2'-OMe; 3' idT
With B2 the Kd [2, 13] was 34.5 nM.

B3: T89 vrt3 (ssRNA)
RNA: ACGAACUGCCCUCGUAUUAUUUCGACGCACAGACGU
modifications: 2'-F C9,C10,C11,C26,C28,U36; rest 2'-OMe; 3' idT
Work on B3 yielded a Kd [3, 13] of 63 nM.

B4: T89 vrt1 (ssRNA)
RNA: ACGAACUGCCCUCGUAUUAUUUCGACGCACAGACGU
modifications: 2'-F C2,U7,C9,C10,C11,U12,C26,C28,C34,U36; ribo A1,G3,G8,A25,G27,A29,G35; rest 2'-OMe; 3' idT
Binder B4 has a Kd [4, 13] of 1.2 nM.

B5: T89 (ssRNA)
RNA: ACGAACUGCCCUCGUAUUAUUUCGACGCACAGACGU
modifications: 2'-F C and U; 2'-OH A and G; 3' idT
Binder B5 has a Kd [5] of 12 nM.

B6: T25 vrt9 (ssRNA)
RNA: ACGAACUGCCCUCAGCUACUUUCAUGUUGCUGACGCACAGACGU
modifications: rAfCrGrArAfCfUrGfCfCfCfUfCmAmGfCfUmAfCfUfUfUfCrAfUrGfUfUmGfCfUmGrAfCrGfCrAfCrArGrAfCrGfU-idT
B6 showed a Kd [6] of 9.8 nM.

B7: T25 vrt11 (ssRNA)
RNA: ACGAACUGCCCUCAGCUACUUUCAUGUUGCUGACGCACAGACGU
modifications: rAfCrGrArAfCfUrGfCfCfCfUfCrArGfCfUrAfCfUfUfUfCmAfUmGfUfUrGfCfUrGrAfCrGfCrAfCrArGrAfCrGfU-idT
B7 showed a Kd [6] of 7.2 nM.

B8: T25 vrt17 (ssRNA)
RNA: ACGAACUGCCCUCAGCUACUUUCAUGUUGCUGACGCACAGACGU
modifications: rAfCrGrArAfCmUrGfCfCfCfUfCrArGfCfUrAfCfUfUfUfCrAfUrGfUfUrGfCfUrGrAfCrGfCmAfCrArGrAfCrGfU-idT
B8 showed a Kd [7] of 23 nM.

B9: T25 vrt12 (ssRNA)
RNA: ACGAACUGCCCUCAGCUACUUUCAUGUUGCUGACGCACAGACGU
modifications: rAfCrGrArAfCfUrGfCfCfCfUfCrArGfCfUrAmCmUmUmUmCmAmUmGfUfUrGfCfUrGrAfCrGfCrAfCrArGrAfCrGfU-idT
Binder B9 has a Kd [8] of 7.1 nM.

B10: T25 vrt13 (ssRNA)
RNA: ACGAACUGCCCUCAGCUACUUUCAUGUUGCUGACGCACAGACGU
modifications: rAfCrGmAmAmCfUrGfCfCfCfUmCmAmGmCmUmAmCmUmUmUmCmAmUmGmUmUmGmCmUmGrAfCrGfCrAmCmAmGmAfCrGfU-idT
Binder B10 has a Kd [5] of 1.9 nM.

B11: T25 vrt10 (ssRNA)
RNA: ACGAACUGCCCUCAGCUACUUUCAUGUUGCUGACGCACAGACGU
modifications: rAfCrGrArAfCfUrGfCfCfCfUmCmAmGmCmUmAfCfUfUfUfCrAfUrGmUmUmGmCmUmGrAfCrGfCrAfCrArGrAfCrGfU-idT
B11 gave a Kd [9] of 5.7 nM.

B12: T25 vrt21 (ssRNA)
RNA: ACGAACUGCCCUCAGCUACUUUCAUGUUGCUGACGCACAGACGU
modifications: rAfCrGrArAfCfUrGfCfCfCmUfCrArGfCfUrAfCfUfUfUfCrAfUrGfUfUrGfCfUrGmAfCrGfCrAfCrArGrAfCrGfU-idT
B12 showed a Kd [9] of 17 nM.

B13: T25 vrt15 (ssRNA)
RNA: ACGAACUGCCCUCAGCUACUUUCAUGUUGCUGACGCACAGACGU
modifications: rAmCrGrArAfCfUrGfCfCfCfUfCrArGfCfUrAfCfUfUfUfCrAfUrGfUfUrGfCfUrGrAfCrGfCrAfCrArGrAfCmGfU-idT
For B13, the Kd ([2]; tags: factor VIII free) was 7.3 nM.

B14: T21 (ssRNA)
RNA: GGGAGGUCAGCUACUUUCAUGUUGCUGACGCACAGACGACUCGCUG
modifications: 2'-F C and U; 2'-OH A and G
B14 showed a Kd [10] of 26 nM.

B15: T59 vrt7 (ssRNA)
RNA: ACGAACUGCCCUCGAUCGACGCACAGACGU
modifications: mAfCmGmAmAmCfUrGfCfCfCfUmCmGmAmUmCmGrAfCrGfCrAmCmAmGmAfCmGfU-idT
Binder B15 has a Kd ([4]; tags: factor VIII free) of 0.8 nM.

B16: T16 (ssRNA)
RNA: GGGAGGUGGACGAACUGCCCUCAGCUACGUUGCUGACGCACAGACGACUCGCUG
modifications: 2'-F C and U; 2'-OH A and G
Work on B16 yielded a Kd [11] of 126 nM.

B17: T63 (ssRNA)
RNA: ACGAACGCCCUCGAUUAUUCGACGCACGACGU
modifications: 2'-F C and U; 2'-OH A and G; 3' idT
Work on B17 yielded a Kd [10] of 83 nM.

B18: T60 (ssRNA)
RNA: ACGAACUGCCCUCGAUUUCGACGCACAGACGU
modifications: 2'-F C and U; 2'-OH A and G; 3' idT
B18 gave a Kd ([12]; tags: factor VIII free) of 12.5 nM.

B19: T94 vrt7 (ssRNA)
RNA: ACGAACUGCCCUCUUUUUUGACGCACAGACGU
modifications: 2'-F C9,C10,C11,C22,G23,C24; rest 2'-OMe; 3' idT
B19 gave a Kd [12, 13] of 29 nM.

B20: T41 (ssRNA)
RNA: ACGAACUGCCCUCAGCACUUAUGUGCUGACGCACAGACGU
modifications: 2'-F C and U; 2'-OH A and G; 3' idT
B20 gave a Kd ([3]; tags: factor VIII free) of 8.6 nM.
